Results on one molecule are retold here after US10877024B2, “Methods of determining interferon having direct inhibitory effects on tumors and uses thereof” (SUPERLAB FAR EAST LIMITED, priority 2015, dated 2020).

For data set [1], the system named is colon cancer SW620 cells. Kind of data set: Cell migration assay across microporous membranes. It counts as cell-based, human. The conditions noted are these: 10 μg/ml, 24 hr. Here is the method: (§1) The cell migration assay was performed using 8 μm cell culture inserts in 24-well plates (Becton-Dickinson Biosciences, NJ, USA). Warm (37° C.) bicarbonate based culture medium without FBS was added to the interior of the inserts and to the bottoms of the wells, and were allowed to rehydrate for 2 hr in humidified tissue culture incubator at 37° C. in 5% CO2. After rehydration, the culture medium was carefully removed. […] In the lower compartment of the 24-well plates were placed 500 μl of complete medium with 10% FBS. After 24 hr at 37° C. under the regular culture conditions, the non-migrated cells in the upper part of the chamber membranes were removed with a cotton swab. The lower part of the culture inserts were fixed with 4% paraformaldehyde and stained with 2% crystal violet. The number of migrated cells on the opposite side of the chamber membranes from where the cells were placed was counted in each of the triplicate wells. Each experiment was repeated at least two times, each time with triplicate wells.

Data set [2] concerns lung cancer A549 cells. Kind of data set: Cell migration assay across microporous membranes. It counts as cell-based, human. The conditions noted are these: 10 μg/ml, 24 hr, untreated Mock about 30. The protocol: as §1
The test system of data set [3] is SW620 tumor cells. In words: Cell viability, MTT assay, 1-6 days. It counts as cell-based, human. The conditions noted are these: 10 μg/ml. (In general: Tetrazolium assays rely on reduction of a dye to a coloured formazan, in cell work by metabolically active cells.)
Protocol: The cell survival rate was evaluated in a standard MTT assay [3-(4,5-dimethylthiazol-2-yl)-2,5-diphenyltetrazolium bromide assay, Sigma, St. Louis, Mo.). For the assay, about 20 μl MTT (at 4 mg/ml) was added to each well. The cells were incubated at 37° C. for 4 hr. After that, the supernatant of each well was drawn off carefully and then an equal volume (150 microliter) of dimethyl sulfoxide (DMSO) was added to each well and mixed thoroughly on a shaker for 15 min. The absorbance from the plates was read at 595 nm with a Thermo Scientific Microplate Reader (Thermo Fisher Scientific Inc., Lowell, Mass.). The relative cell viability was calculated as follows: Cell viability=(Treated group(OD595) minus blank(OD595))/(Control group(OD595) minus blank(OD595))×100%.
In data set [4] the test system is Human Colon Cancer HT-29 Xenografts. Kind of data set: rSIFN-co on human colon cancer HT-29 xenografts in nude mice. In kind it is in vivo. The conditions noted are these: for TV(mm^3, mean ± SD) (D 0): day 0; for % Inhibition / T/C (%) / TV(mm^3, mean ± SD) (D 28): day 28.
The subject of data set [5] is phosphorylation of STAT1 (Tyr701), STAT2 (Tyr690), and STAT3 (Tyr705). Kind of data set: p-STAT induction after B18R pre-incubation, Western blot. The note with it: IFN 1 ng/ml, B18R 10 ng/ml, 30 min, compared to IFNα-2b. In kind it is cell-based, human. (In general: Immunoblotting shows a protein as a band on a membrane.)
For data set [6], the system named is beta-catenin. In words: Beta-catenin protein level by Western Blot. In kind it is cell-based, human. The conditions noted are these: 10 mcg/ml, 24, 48, 72 hr. The protocol: Cancer cells, A549 and Sw480, were cultured to about 85% confluency and put into 6 well plates. […] After treatment, the cells were harvested for Western Blot to detect the beta-catenin protein level, using its specific antibody, with GAPDH as endogenous loading control. The experiment was conducted in triplicate.
To determine the expression of various proteins, cells were harvested from the plates and total cellular protein were extracted using extraction reagents (Cat #: P0013) according to the manufacturer's protocol (Beyotime, China). The total protein concentration was determined by the Lowry Protein Assay kit (Bio-Rad, USA). […] The membranes were blocked with 5% skimmed milk, bovine serum albumin, 10 mmol/L Tris-HCl at pH 8.0, 150 mmol/L NaCl, and 0.05% Tween 20 overnight at 4° C. The blocked membranes were then incubated with primary antibodies (1:1000 dilutions), followed by secondary HRP-conjugated antibodies. Blots were visualized using Luminescence/Fluorescence Imaging LAS4000 System (GE Healthcare Life Sciences, USA) with super signal west pico chemiluminescent substrate kit (Thermo scientific, USA).
For this determination, the primary antibodies used were mouse monoclonal anti-beta-catenin antibodies (1:1000; Santa Cruz Technology, Santa Cruz, Calif.) and mouse monoclonal anti-GAPDH antibodies (1:2000) (Kangwei Biotechnology, China). […]

The test system of data set [7] is A549 xenograft tumors. In words: Tumor growth of A549 xenografts in nude mice. It counts as in vivo, BALB/c nude mice. The conditions noted are these: 100 μg/100 μl per mouse intratumorally, every other day, 12 times; vs PBS. Here is the method: This experiment was conducted in accordance to the National Institutes of Health Guide for the Care and Use of Laboratory Animals. Female BALB/c nude mice, 4-5 weeks old, were obtained from Shanghai Experimental Animal Center (Shanghai, China). About 5×10^6 A549 cells were subcutaneously injected into each mouse to establish xenograft tumors. […] The tumors were measured every three (3) days and the tumor volumes were calculated as follows: tumor volume (mm^3)=(length×width^2)/2. Data are shown as Mean±SD (n=8).

For data set [8], the system named is STAT1 (Tyr701), STAT2 (Tyr690), STAT3(Tyr705). Kind of data set: STAT phosphorylation by Western Blot. The note with it: A549 cells and Hela cells, 10 μg/ml, 0-240 minutes. It counts as cell-based, human. The text has this: After treatment, the cells were collected, cellular proteins were extracted and loaded onto SDS-PAGE […] for Western Blot analysis to observe the phosphorylation of STAT1 (Tyr701), STAT2 (Tyr690), and STAT3(Tyr705). GAPDH was used as a loading control.
The primary antibodies used were: STAT1 (1:1000, Cat #: 9175S), Tyr701 phosphorylated-STAT1 (1:1000, Cat #: 9167S), STAT2 (1:500, Cat #4594), Tyr690 phosphorylated-STAT2 (1:1000, Cat #: 441S), STAT3 (1:1000, Cat #: 9132), Tyr705 phosphorylated-STAT3 (1:1000, Cat #: 9145S). Anti-mouse (Cat #:sc-2005) or rabbit (Cat #: sc-2004) or goat (Cat #: sc-2020) HRP-conjugated secondary antibodies (Santa Cruz Technology, Santa Cruz, Calif.) were used at concentrations of 1:2000. Blots were visualized by use of Luminescence/Fluorescence Imaging LAS4000 System (GE Healthcare Life Sciences, USA) with super signal west pico chemiluminescnet substrate kit (Thermo Scientific, USA).

Data set [9] deals with procaspase-3, cleaved caspase-3, procaspase-8, cleaved caspase-8, PARP. In words: Apoptosis-related molecular markers by Western Blot. It counts as cell-based, human. The note with it: A549 and SW620 cells, 24 hr or 48 hr; interferons 10 mcg/ml. The source says: Thereafter, apoptosis-related molecular markers were monitored by Western Blot. The primary antibodies used were mouse monoclonal anti-beta-tubulin (1:2000, Cat #: CW0098A) and mouse monoclonal anti-GAPDH (1:2000, Cat #: CW0100A) (Kangwei Biotechnology, China); mouse monoclonal anti-PARP (1:1000, Cat #: sc-2007, Santa Cruz Biotechnology, Inc.); rabbit monoclonal anti-procaspase 3 (1:1000, Cat #: 9665), and rabbit polyclonal anti-cleaved caspase 3 (1:1000, Cat #: 9661) (Cell Signaling Technology, USA); goat polyclonal anti-procaspase 8 (1:1000, Cat #: sc-6136, Santa Cruz Biotechnology, Inc); rabbit monoclonal anti-cleaved caspase 8 (1:1000, Cat #: 9496) (Cell Signaling Technology, USA).

Where [10] appears, read: 0.05 mg/mouse i.t. every other day.
[11] abbreviates: 0.10 mg/mouse i.t. every other day.
Setting [12] is: 0.15 mg/mouse i.t. every other day.

B1: rSIFN-co: Recombinant super-compound interferon; amino acid sequence SEQ ID NO: 1 (same as INFERGEN), encoded by novel nucleotide sequence SEQ ID NO: 2 (protein)
chain: MCDLPQTHSLGNRRALILLAQMRRISPFSCLKDRHDFGFPQEEFDGNQFQKAQAISVLHEMIQQTFNLFSTKDSSAAWDESLLEKFYTELYQQLNDLEACVIQEVGVEETPLMNVDSILAVKKYFQRITLYLTEKKYSPCAWEVVRAEIMRSFSLSTNLQERLRRKE
modifications: Amino acid sequence of recombinant interferon
In the case of B1, in [1], the tumor cell migration result is given as “Significant inhibition”. Besides, the “mean number of migrating cells per field” value in data set [2] was “about 10 cells per field”. Besides, the “cell viability over time (MTT)” value in data set [3] was “strongly decreased cell viability of SW620 cells in a time-dependent manner”. Also, in [4] (setting [10]), the “TV(mm^3, mean ± SD) (D 0)” value is 130 ± 26 mm^3; the % Inhibition (commonly how much of the control response was suppressed) came out at 61%; the “T/C (%)” value amounted to 39%; the “TV(mm^3, mean ± SD) (D 28)” value came out at 416 ± 166 mm^3. In [4] (setting [11]), the “TV(mm^3, mean ± SD) (D 0)” value was 128 ± 39 mm^3; the “% Inhibition” value was 49.82%; the “T/C (%)” value is recorded as 50.18%; the “TV(mm^3, mean ± SD) (D 28)” value is listed as 541 ± 196 mm^3. Moreover, in [4] (setting [12]), the “TV(mm^3, mean ± SD) (D 0)” value was 131 ± 36 mm^3; the “% Inhibition” value is given as 46.37%; the “T/C (%)” value was 53.63%; the “TV(mm^3, mean ± SD) (D 28)” value was found to be 570 ± 144 mm^3. For the same molecule, in data set [4] (0.05-0.15 mg/mouse i.t. every other day, 28 days), the “tolerability, signs of drug toxicity, changes in weight” value was “tolerated the tested dosages and showed no signs of drug toxicity and minimal changes in weight”. Besides, in [5] (A549 cells), the “induction of phosphorylation on STAT1/2/3 after B18R pre-incubation” value is recorded as “greater induction of phosphorylation on STAT1/2/3”. Further, in data set [5] (Hela cells), the “induction of phosphorylation on STAT1/2/3 after B18R pre-incubation” value is “greater induction of phosphorylation on STAT1/2/3”. In addition, the beta-catenin protein level entry in data set [6] (A549 cells) is reported as “dramatically decreased beta-catenin protein level after treatment for 2 days (48 hr)”. Also, the beta-catenin protein level result in data set [6] (SW480 cells) is listed as “obvious after 72 hours of treatment”. In [7], the “inhibition of tumor growth (tumor volume)” value was “almost completely inhibit growth of established tumors”. Further, the “phosphorylation patterns for STAT1, STAT2 and STAT3 (JAK/STATs signaling level)” value in [8] was “no different from that mediated by IFN alpha-2b”. For the same molecule, in data set [9], the “level of cleaved caspase-3 and cleaved caspase-8” value is on record as “neither of the interferons, IFN alpha-2b nor rSIFN-co, caused any reduction in the level of procaspase-3 or procaspase-8 or PARP, or induced any enhancement”; the “level of procaspase-3, procaspase-8 and PARP” value is “neither of the interferons, IFN alpha-2b nor rSIFN-co, caused any reduction”.
